Measured values as given in patent publication US20190352660A1 (PLANT BIOSCIENCE, published 2019).

Target: T1, GST-GUS (UniProt P05804 1-603, limits assumed)
T1 construct: Negative control bait; also called GST-tagged beta-glucuronidase; negative control GST-GUS; not shown: GST tag
Test: in vitro GST pull-down on glutathione sepharose beads, immunoblot for GST and FLAG
Protocol: E. coli expressed GST-tagged bait proteins were incubated with E. coli expressed FLAG-tagged prey proteins before purification on glutathione sepharose beads and immunoblotting for GST and FLAG.
Following this growth phase, the cultures were centrifuged at 4500×g for 10 minutes, the supernatants were discarded and the pellets resuspended at 4° C. in 2.5 ml TGH Buffer (50 mM HEPES (pH7.5), 150 mM NaCl, 1% Triton-X-100, 10% Glycerol, 1 mM DTT, 1 complete EDTA-free protease inhibitor tablet (per 50 ml) (Roche 11873580001)). The bacterial suspension was then sonicated (on ice) for four bursts of ten seconds, separated by 20-second intervals, before being centrifuged at 12 000×g for 20 minutes to pellet any cellular debris. Cleared sonicates were then stored on ice while a 50% slurry of washed glutathione sepharose beads (GE Life Sciences 17-0756-01) was prepared according to the manufacturer's instructions. 20 μl of the 50% glutathione sepharose slurry was then combined with 2.5 ml of protein extract from bait protein (GST-tagged) expressing cells and 2.5 ml of protein extract from prey protein (HA-/FLAG-/HIS-tagged) expressing cells. […] After washing, proteins were eluted with 35 μl GST-elution buffer (50 mM TRIS-glycine (pH8.0), 10 mM reduced glutathione) over 30 minutes at 4° C. before being analysed by western blot analysis. […]

T1 sequence (P05804 whole entry): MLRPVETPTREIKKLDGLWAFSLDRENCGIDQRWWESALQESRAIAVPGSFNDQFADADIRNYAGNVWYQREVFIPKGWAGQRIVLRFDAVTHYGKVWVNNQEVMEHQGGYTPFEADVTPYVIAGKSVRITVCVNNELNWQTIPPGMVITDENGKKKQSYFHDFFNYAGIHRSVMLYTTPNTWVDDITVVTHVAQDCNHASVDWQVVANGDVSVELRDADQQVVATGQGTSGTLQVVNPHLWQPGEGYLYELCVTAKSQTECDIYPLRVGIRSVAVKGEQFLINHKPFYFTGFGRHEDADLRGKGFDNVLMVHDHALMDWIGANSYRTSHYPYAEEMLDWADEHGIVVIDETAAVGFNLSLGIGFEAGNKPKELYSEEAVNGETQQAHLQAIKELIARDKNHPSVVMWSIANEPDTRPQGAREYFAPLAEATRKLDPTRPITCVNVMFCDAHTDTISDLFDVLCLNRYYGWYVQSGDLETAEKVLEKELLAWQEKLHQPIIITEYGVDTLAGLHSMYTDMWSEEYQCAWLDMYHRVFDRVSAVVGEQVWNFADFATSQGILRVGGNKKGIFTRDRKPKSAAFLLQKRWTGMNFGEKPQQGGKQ

Row | binding result | Binder
1 | no binding | FLAG-DA1 (other, E. coli expressed prey protein; also called FLAG-tagged wild-type DA1; AtDA1; not shown: FLAG tag) MGWFNKIFKGSNQRLRVGNNKHNHNVYYDNYPTASHDDEPSAADTDADNDEPHHTQEPSTSEDNTSNDQENEDIDRAIALSLLEENQEQTSISGKYSMPVDEDEQLARALQESMVVGNSPRHKSGSTYDNGNAYGAGDLYGNGHMYGGGNVYANGDIYYPRPITFQMDFRICAGCNMEIGHGRFLNCLNSLWHPECFRCYGCSQPISEYEFSTSGNYPFHKACYRERYHPKCDVCSHFIPTNHAGLIEYRAHPFWVQKYCPSHEHDATPRCCSCERMEPRNTRYVELNDGRKLCLECLDSAVMDTMQCQPLYLQIQNFYEGLNMKVEQEVPLLLVERQALNEAREGEKNGHYHMPETRGLCLSEEQTVSTVRKRSKHGTGKWAGNITEPYKLTRQCEVTAILILFGLPRLLTGSILAHEMMHAWMRLKGFRTLSQDVEEGICQVMAHKWLDAELAAGSTNSNAASSSSSSQGLKKGPRSQYERKLGEFFKHQIESDASPVYGDGFRAGRLAVHKYGLRKTLEHIQMTGRFPV
2 | no binding | FLAG-da1lim8 (other, E. coli expressed prey protein; It is a DA1 variant with a mutated LIM domain; also called FLAG-tagged DA1lim8; not shown: FLAG tag) MGWFNKIFKGSNQRLRVGNNKHNHNVYYDNYPTASHDDEPSAADTDADNDEPHHTQEPSTSEDNTSNDQENEDIDRAIALSLLEENQEQTSISGKYSMPVDEDEQLARALQESMVVGNSPRHKSGSTYDNGNAYGAGDLYGNGHMYGGGNVYANGDIYYPRPITFQMDFRIGAGGNMEIGHGRFLNCLNSLWHPECFRGYGGSQPISEYEFSTSGNYPFHKACYRERYHPKCDVCSHFIPTNHAGLIEYRAHPFWVQKYCPSHEHDATPRCCSCERMEPRNTRYVELNDGRKLCLECLDSAVMDTMQCQPLYLQIQNFYEGLNMKVEQEVPLLLVERQALNEAREGEKNGHYHMPETRGLCLSEEQTVSTVRKRSKHGTGKWAGNITEPYKLTRQCEVTAILILFGLPRLLTGSILAHEMMHAWMRLKGFRTLSQDVEEGICQVMAHKWLDAELAAGSTNSNAASSSSSSQGLKKGPRSQYERKLGEFFKHQIESDASPVYGDGFRAGRLAVHKYGLRKTLEHIQMTGRFPV
